Experimental findings from article PMC7117682 are described below.

The target in assay [1] is CD47 naturally expressed on CD47(+) Jurkat T lymphoma cells (human (endogenous in Jurkat)) (UniProt Q08722). Briefly: laser scanning cytometry (LSC) on cells; titration of SIRPα-biotin on live DRAQ5-labelled Jurkat cells, 384-well, homogeneous (no wash), HEPES buffer (10 mM HEPES pH 7.5, 0.15 M NaCl), room temperature, neutravidin-Alexa488 0.5 μg/mL; SIRPα presented as a multimer on tetrameric neutravidin (avidity).
Chain of CD47 naturally expressed on CD47(+) Jurkat T lymphoma cells (human (endogenous in Jurkat)) (Q08722 19-323): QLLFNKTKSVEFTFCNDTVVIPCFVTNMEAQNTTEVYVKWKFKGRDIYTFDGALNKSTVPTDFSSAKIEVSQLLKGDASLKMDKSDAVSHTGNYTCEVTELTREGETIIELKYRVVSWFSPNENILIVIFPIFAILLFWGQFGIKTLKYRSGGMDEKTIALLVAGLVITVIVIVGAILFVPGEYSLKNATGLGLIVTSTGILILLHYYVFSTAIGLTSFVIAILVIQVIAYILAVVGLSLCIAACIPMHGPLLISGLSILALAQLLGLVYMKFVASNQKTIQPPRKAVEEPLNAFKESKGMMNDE

Assay [2] shares this target. Briefly: laser scanning cytometry (LSC) on cells; competition on live CD47(+) Jurkat cells, 384-well, homogeneous: a fixed concentration of SIRPα-biotin (20 nM) co-incubated with a titration of the competitor or inhibitor, neutravidin-Alexa488.

The EC50 is the concentration needed to bring the measured effect to its halfway point. In assay [1], “SIRPα variant 2, biotin-conjugated (SIRPα-Avi-biotin d1 construct) (domain or fragment)” displayed an EC50 of 16 nM and a fold more potent than SIRPαV1 of 2 fold. The term IC50 denotes the concentration that gives 50% inhibition. Consider “SIRPα variant 2, non-biotin conjugated (cold) (domain or fragment)”, for which the IC50 in assay [2] came out at 3000 nM.
